Results as given in publication PMC4883780.

Tests used:
[1] = target: human vascular endothelial growth factor 165 (hVEGF), E. coli-derived, after tag cleavage (human); test: SEC; SEC-HPLC, Protein-pak 300SW SEC 7.5 x 300 mm column, 1X PBS pH 7.4, room temperature, 1 mL/min, detection at 280 nm; peaks checked on non-reducing SDS-PAGE
[2] = target: human vascular endothelial growth factor 165 (hVEGF), E. coli-derived, after tag cleavage (human); test: non-reducing SDS-PAGE; purified hVEGF in sample buffer with SDS, without DTT (non-reducing) against with 100 mM DTT (reducing), tricine SDS-PAGE, Coomassie stain; shows disulfide-linked forms

- stoichiometry N [1]: 2
- stoichiometry N [2]: 2
Substance: human vascular endothelial growth factor 165 (hVEGF), E. coli-derived, after tag cleavage (ligand)
